# Reference: the supplement of paper PMC9233669
# Variants at the floor of the assay were thinned out.
# Legend:
# biotinyl-Met-oxazolone = assay: self-aminoacylation, catalytic enhancement (BMO) (fold over background); higher = more active; k-Seq, kA / k0A0; sequences stand for … in GGGAAUGGAUCCACAUCUACGAAUUC…UUCACUGCAGACUUGACGAAGCUG
# How it was run: (§1)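 Catalytic enhancement equals the median kA over the uncatalyzed rate, the latter read from the low-activity peak of a bimodal Gaussian fit. Values of kA came from fitting each sequence's fraction reacted to a pseudo-first-order model, with 1000 bootstraps. Reacted RNA was captured with streptavidin and quantified by triplicate qPCR and Illumina sequencing after 90 minutes at room temperature with 2–1250 μM biotinyl-aminoacyl-oxazolone and 0.43 μM mutagenized RNA pools bearing a 21-nt variable region.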
# biotinyl-Leu-oxazolone = assay: self-aminoacylation, catalytic enhancement (BLO) (fold over background); higher = more active; k-Seq, kA / k0A0; sequences stand for … in GGGAAUGGAUCCACAUCUACGAAUUC…UUCACUGCAGACUUGACGAAGCUG
# How it was run: as §1
# biotinyl-Trp-oxazolone = assay: self-aminoacylation, catalytic enhancement (BWO) (fold over background); higher = more active; k-Seq, kA / k0A0; sequences stand for … in GGGAAUGGAUCCACAUCUACGAAUUC…UUCACUGCAGACUUGACGAAGCUG
# How it was run: as §1
# biotinyl-Ile-oxazolone = assay: self-aminoacylation, catalytic enhancement (BIO) (fold over background); higher = more active; k-Seq, kA / k0A0; sequences stand for … in GGGAAUGGAUCCACAUCUACGAAUUC…UUCACUGCAGACUUGACGAAGCUG
# How it was run: as §1
# biotinyl-Val-oxazolone = assay: self-aminoacylation, catalytic enhancement (BVO) (fold over background); higher = more active; k-Seq, kA / k0A0; sequences stand for … in GGGAAUGGAUCCACAUCUACGAAUUC…UUCACUGCAGACUUGACGAAGCUG
# How it was run: as §1
# biotinyl-Phe-oxazolone = assay: self-aminoacylation, catalytic enhancement (BFO) (fold over background); higher = more active; k-Seq, kA / k0A0; sequences stand for … in GGGAAUGGAUCCACAUCUACGAAUUC…UUCACUGCAGACUUGACGAAGCUG
# How it was run: as §1
Sequence,self-aminoacylation (biotinyl-Met-oxazolone),self-aminoacylation (biotinyl-Leu-oxazolone),self-aminoacylation (biotinyl-Trp-oxazolone),self-aminoacylation (biotinyl-Ile-oxazolone),self-aminoacylation (biotinyl-Val-oxazolone),self-aminoacylation (biotinyl-Phe-oxazolone)
AUACACCUAGGUCAUUGGGUG [Fam2.2 aminoacylation ribozyme variant],2.36,2.14,3.17,2.02,2.24,13.3
AUACACCUAGGUCCUCGGGUG [Fam2.2 aminoacylation ribozyme variant],2.71,3.48,3.71,3.44,3.57,21.8
AUACACCUAGGUCUUCGGGUG [Fam2.2 aminoacylation ribozyme variant],2.71,3.72,2.64,2.7,3.04,23.2
AUACACCUAGUUCAUCGGGUG [Fam2.2 aminoacylation ribozyme variant],1.73,1.78,3.48,2.33,2.19,4.89
AUACACUUAGGUCAUCGGGUG [Fam2.2 aminoacylation ribozyme variant],5.5,6.18,5.82,3.82,3.3,36.6
AUACAUCUAGGUCAUCGGGUG [Fam2.2 aminoacylation ribozyme variant],4.39,4.8,5.51,3.19,2.85,24.4
AUACUCCAAACAAUCGGUCUG [Fam1A.1 aminoacylation ribozyme variant],0.759,0.534,1.61,0.827,0.743,1.98
AUACUUCAAACAAUCGGACUG [Fam1A.1 aminoacylation ribozyme variant],0.548,0.522,2.34,0.748,0.666,3.32
AUACUUCAAACAAUCGGUUUG [Fam1A.1 aminoacylation ribozyme variant],0.91,1.14,9.98,1.05,1.06,12.9
AUACUUCAAACAAUGGGUCUG [Fam1A.1 aminoacylation ribozyme variant],0.862,0.847,0.934,0.935,0.921,0.774
AUACUUCAAACACUCGGUCUG [Fam1A.1 aminoacylation ribozyme variant],0.83,0.917,0.981,1.06,0.821,1.31
AUACUUCAAACAUUCGGUCUG [Fam1A.1 aminoacylation ribozyme variant],1.09,1.09,1.11,1.18,1.1,1.19
AUACUUCACACAAUCGGUCUG [Fam1A.1 aminoacylation ribozyme variant],0.927,0.683,0.814,0.901,0.861,1.15
AUAGCCCUGGUCAUCGAGUGA [Fam2.1 aminoacylation ribozyme variant],19.9,20.3,21.6,8.62,7.53,78.5
AUCAACCUAGGUCAUCGGGUG [Fam2.2 aminoacylation ribozyme variant],7.11,10.2,7.85,4.88,5.02,36.3
AUCACCAUGGUCAUCGAGUGA [Fam2.1 aminoacylation ribozyme variant],10.3,11.7,13.2,5.49,5.56,58.9
AUCACCCGGGUCAUCGAGUGA [Fam2.1 aminoacylation ribozyme variant],7.5,7.28,8.12,3.65,4.32,51.8
AUCACCCUGGACAUCGAGUGA [Fam2.1 aminoacylation ribozyme variant],9.05,10.4,8.8,3.98,4.56,68.7
AUCACCCUGGUAAUCGAGUGA [Fam2.1 aminoacylation ribozyme variant],11.2,11.3,13.6,4.92,4.82,95.4
AUCACCCUGGUCAUGGAGUGA [Fam2.1 aminoacylation ribozyme variant],6.29,6.86,6.96,3.54,3.58,34
AUCACCCUGGUCAUUGAGUGA [Fam2.1 aminoacylation ribozyme variant],11.3,13,12.9,5.63,5.8,75.1
AUCACCCUGGUUAUCGAGUGA [Fam2.1 aminoacylation ribozyme variant],12,13.5,12.2,4.98,5.37,86.5
AUCAGCCUGGUCAUCGAGUGA [Fam2.1 aminoacylation ribozyme variant],4.28,4.62,6.36,3.99,3.49,32.5
AUCCACCUACGUCAUCGGGUG [Fam2.2 aminoacylation ribozyme variant],6.46,6.58,4.86,4.29,3.75,41.3
AUCCACCUAGGUCAUCGCGUG [Fam2.2 aminoacylation ribozyme variant],8.4,13.9,8.63,7.45,7.73,88.1
AUCCACCUAGGUCAUCGGGUG [Fam2.2 aminoacylation ribozyme variant],32.1,42,25,18.4,17,240

Sequence,self-aminoacylation (biotinyl-Met-oxazolone),self-aminoacylation (biotinyl-Leu-oxazolone),self-aminoacylation (biotinyl-Trp-oxazolone),self-aminoacylation (biotinyl-Ile-oxazolone),self-aminoacylation (biotinyl-Val-oxazolone),self-aminoacylation (biotinyl-Phe-oxazolone)
AUCCACCUAGGUCGUCGGGUG [Fam2.2 aminoacylation ribozyme variant],2.62,3.5,2.22,2.36,2.56,9.53
AUCCAGCUAGGUCAUCGGGUG [Fam2.2 aminoacylation ribozyme variant],5.63,6.74,7.36,4.76,6.15,47.5
AUCCGCCUAGGUCAUCGGGUG [Fam2.2 aminoacylation ribozyme variant],15.9,18.5,16.4,10.3,10.1,120
AUGACCCUGAUCAUCGAGUGA [Fam2.1 aminoacylation ribozyme variant],5.56,5.85,6.06,2.73,2.84,19.5
AUGACCCUGGCCAUCGAGUGA [Fam2.1 aminoacylation ribozyme variant],5.04,7.68,6.4,3.03,3.66,32
AUGACCCUGGUCAUAGAGUGA [Fam2.1 aminoacylation ribozyme variant],7.12,6.95,6.89,3.35,3.59,46.6
AUGACCCUGGUCAUCGAGCGA [Fam2.1 aminoacylation ribozyme variant],2.99,3.09,2.48,2.2,2.31,3.71
AUGACCCUGGUCAUCGAGUGA [Fam2.1 aminoacylation ribozyme variant],58.9,55.8,51.6,18.6,19.3,451
AUGACCCUGGUCAUCGAGUGC [Fam2.1 aminoacylation ribozyme variant],7.15,6.92,4,2.61,2.96,17.4
AUGACCCUGGUCAUCGAGUGG [Fam2.1 aminoacylation ribozyme variant],30,31,20.9,7.48,8.22,215
AUGACCCUGGUCAUCGGGUGA [Fam2.1 aminoacylation ribozyme variant],90.6,99,94.9,31.9,35.1,571
AUGACCCUGGUCAUGGAGUGA [Fam2.1 aminoacylation ribozyme variant],4.69,4.81,4.08,2.56,2.73,26.2
AUGACCCUGGUCUUCGAGUGA [Fam2.1 aminoacylation ribozyme variant],5.04,6.24,6.19,2.9,2.95,30.4
AUGACCCUGUUCAUCGAGUGA [Fam2.1 aminoacylation ribozyme variant],4.75,5.72,6.05,3.16,3.03,17.7
AUGAUCCUGGUCAUCGAGUGA [Fam2.1 aminoacylation ribozyme variant],9.84,9.67,9.32,4.83,4.44,14
AUGCACCUACGUCAUCGGGUG [Fam2.2 aminoacylation ribozyme variant],7.02,7.54,6.56,3.57,4.21,60.7
AUGCACCUAGCUCAUCGGGUG [Fam2.2 aminoacylation ribozyme variant],1.57,2.11,2.72,1.62,2.4,3.64
AUGCACCUAGGUCAUCCGGUG [Fam2.2 aminoacylation ribozyme variant],6.24,7.51,7.68,4.42,4.06,57.6
AUGCACCUAGGUCAUCGGAUG [Fam2.2 aminoacylation ribozyme variant],0.919,1.11,1.25,1.26,1.23,0.614
AUGCACCUAGGUCAUCGGGGG [Fam2.2 aminoacylation ribozyme variant],2.72,2.64,3.3,2.4,2.33,7.48
AUGCACCUAGGUCAUCGGGUA [Fam2.2 aminoacylation ribozyme variant],10.2,12.9,9.92,6.6,5.82,42
AUGCACCUAGGUCAUCGGGUG [Fam2.2 aminoacylation ribozyme variant],5.65,6.25,6.01,4.06,4.11,30.1
AUGCACCUAGGUCAUCUGGUG [Fam2.2 aminoacylation ribozyme variant],1.95,2.34,2.17,1.67,1.69,10.8
AUGCACCUAGGUCAUGGGGUG [Fam2.2 aminoacylation ribozyme variant],4.33,4.53,5.66,3.85,3.42,31.3
AUGCACCUUGGUCAUCGGGUG [Fam2.2 aminoacylation ribozyme variant],7.63,9.83,8.29,5.37,5.41,65.4
